Measured values as given in PMC7677223 (Nature microbiology, 2020).

Tests used:
[1] = molecular target: VZV capsid (MCP pORF40, SCP pORF23, Tri1 pORF20, Tri2 pORF41) (varicella-zoster virus (P-Oka strain)) (UniProt P09245); assay: cryo-EM structure
cryo-EM structure = molecular target: the molecule itself; assay: cryo-EM structure

VZV capsid (MCP pORF40, SCP pORF23, Tri1 pORF20, Tri2 pORF41) (varicella-zoster virus (P-Oka strain)), sequence (P09245 whole entry, looked up): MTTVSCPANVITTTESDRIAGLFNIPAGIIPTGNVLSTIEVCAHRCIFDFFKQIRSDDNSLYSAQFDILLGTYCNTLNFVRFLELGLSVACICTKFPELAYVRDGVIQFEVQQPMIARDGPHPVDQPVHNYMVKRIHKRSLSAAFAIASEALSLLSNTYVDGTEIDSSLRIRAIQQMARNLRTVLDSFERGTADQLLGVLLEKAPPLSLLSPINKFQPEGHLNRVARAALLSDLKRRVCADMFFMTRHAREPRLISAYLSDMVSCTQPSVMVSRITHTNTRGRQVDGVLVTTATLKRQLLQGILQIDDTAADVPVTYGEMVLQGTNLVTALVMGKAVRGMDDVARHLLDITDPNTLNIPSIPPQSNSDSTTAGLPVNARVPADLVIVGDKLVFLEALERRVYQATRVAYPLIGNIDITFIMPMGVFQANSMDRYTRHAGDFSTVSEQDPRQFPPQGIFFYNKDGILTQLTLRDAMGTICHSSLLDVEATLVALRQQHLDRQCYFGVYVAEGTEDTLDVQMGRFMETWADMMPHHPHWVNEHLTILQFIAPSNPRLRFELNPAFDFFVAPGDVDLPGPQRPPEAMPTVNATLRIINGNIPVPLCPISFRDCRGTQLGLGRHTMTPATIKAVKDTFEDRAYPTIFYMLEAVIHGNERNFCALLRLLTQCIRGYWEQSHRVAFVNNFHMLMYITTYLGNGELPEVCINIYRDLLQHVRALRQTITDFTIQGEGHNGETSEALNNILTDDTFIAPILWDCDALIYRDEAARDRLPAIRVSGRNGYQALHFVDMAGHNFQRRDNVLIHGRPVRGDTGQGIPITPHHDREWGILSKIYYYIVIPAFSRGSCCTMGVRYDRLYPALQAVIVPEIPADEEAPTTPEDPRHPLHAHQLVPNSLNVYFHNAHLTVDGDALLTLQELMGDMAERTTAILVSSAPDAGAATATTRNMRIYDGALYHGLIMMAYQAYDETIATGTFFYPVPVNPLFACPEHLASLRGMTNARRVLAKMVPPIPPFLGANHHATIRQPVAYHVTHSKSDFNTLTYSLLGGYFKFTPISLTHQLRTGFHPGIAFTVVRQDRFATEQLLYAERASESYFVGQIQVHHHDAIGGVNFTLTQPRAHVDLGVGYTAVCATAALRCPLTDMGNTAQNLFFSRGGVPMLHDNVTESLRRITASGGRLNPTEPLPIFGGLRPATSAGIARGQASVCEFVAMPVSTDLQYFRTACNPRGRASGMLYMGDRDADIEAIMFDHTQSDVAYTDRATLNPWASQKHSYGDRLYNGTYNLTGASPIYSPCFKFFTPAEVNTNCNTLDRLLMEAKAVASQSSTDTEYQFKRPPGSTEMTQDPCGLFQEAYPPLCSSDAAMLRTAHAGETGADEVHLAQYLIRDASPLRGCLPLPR

| Molecule | percent of pentons bound with CATCs [1] | stoichiometry N (cryo-EM structure) |
| --- | --- | --- |
| VZV capsid-associated tegument complex (CATC) | 50.5% |  |
| VZV small capsid protein (SCP) pORF23 (natural protein) MTQPASSRVVFDPSNPTTFSVEAIAAYTPVALIRLLNASGPLQPGHRVDIADARSIYTVGAAASAARARANHNANTIRRTAMFAETDPMTWLRPTVGLKRTFNPRIIRPQPPNPSMSLGISGPTILPQKTQSADQSALQQPAALAFSGSSPQHPPPQTTSASVGQQQHVVSGSSGQQPQQGAQSSTVQPTTGSPPAAQGVPQSTPPPTQNTPQGGKGQTLSHTGQSGNASRSRRV |  | 6 |
